Test results reported in patent US20080274100A1.
Where two headings read alike, the source gives them in different places.

What was measured:
[1] = biological target: GPIb on human platelets (human) (UniProt P07359); assay: FACS on human platelets
[2] = biological target: GPIb (residues 268-285) derived peptide, non-sulfated; assay: peptide ELISA, 0.5 µg/well scFv
[3] = biological target: CCR5 (residues 1-18) derived peptide, sulfated at 3rd tyrosine position; assay: peptide ELISA, 0.5 µg/well scFv
[4] = biological target: PSGL-1 (residues 42-58) derived peptide, sulfated at 2nd tyrosine position; assay: peptide ELISA, 0.5 µg/well scFv
[5] = biological target: PSGL-1 (residues 42-58) derived peptide, sulfated at 3rd tyrosine position; assay: peptide ELISA, 0.5 µg/well scFv
[6] = biological target: CCR5 (residues 1-18) derived peptide, sulfated at 2nd tyrosine position; assay: peptide ELISA, 0.5 µg/well scFv
[7] = biological target: GPIb (residues 268-285) derived peptide, sulfated at 1st tyrosine position; assay: peptide ELISA, 0.5 µg/well scFv
[8] = biological target: PSGL-1 (residues 42-58) derived peptide, non-sulfated; assay: peptide ELISA, 0.5 µg/well scFv
[9] = biological target: CCR5 (residues 1-18) derived peptide, sulfated at 1st tyrosine position; assay: peptide ELISA, 0.5 µg/well scFv
[10] = biological target: PSGL-1 (residues 42-58) derived peptide, sulfated at 1st tyrosine position; assay: peptide ELISA, 0.5 µg/well scFv
[11] = biological target: GPIb (residues 268-285) derived peptide, sulfated at 3rd tyrosine position; assay: peptide ELISA, 0.5 µg/well scFv
[12] = biological target: CCR5 (residues 1-18) derived peptide, non-sulfated; assay: peptide ELISA, 0.5 µg/well scFv
[13] = biological target: GPIb (residues 268-285) derived peptide, sulfated at 1st tyrosine position; assay: peptide ELISA, 0.5 µg/well scFv; remark: listed apart in the source
[14] = biological target: PSGL-1 (residues 42-58) derived peptide, sulfated at 3rd tyrosine position; assay: peptide ELISA, 0.5 µg/well scFv; remark: listed apart in the source
[15] = biological target: CCR5 (residues 1-18) derived peptide, sulfated at 2nd tyrosine position; assay: peptide ELISA, 0.5 µg/well scFv; remark: listed apart in the source
[16] = biological target: GPIb (residues 268-285) derived peptide, sulfated at 3rd tyrosine position; assay: peptide ELISA, 0.5 µg/well scFv; remark: listed apart in the source

Sequence of GPIb on human platelets (human) (P07359 17-652): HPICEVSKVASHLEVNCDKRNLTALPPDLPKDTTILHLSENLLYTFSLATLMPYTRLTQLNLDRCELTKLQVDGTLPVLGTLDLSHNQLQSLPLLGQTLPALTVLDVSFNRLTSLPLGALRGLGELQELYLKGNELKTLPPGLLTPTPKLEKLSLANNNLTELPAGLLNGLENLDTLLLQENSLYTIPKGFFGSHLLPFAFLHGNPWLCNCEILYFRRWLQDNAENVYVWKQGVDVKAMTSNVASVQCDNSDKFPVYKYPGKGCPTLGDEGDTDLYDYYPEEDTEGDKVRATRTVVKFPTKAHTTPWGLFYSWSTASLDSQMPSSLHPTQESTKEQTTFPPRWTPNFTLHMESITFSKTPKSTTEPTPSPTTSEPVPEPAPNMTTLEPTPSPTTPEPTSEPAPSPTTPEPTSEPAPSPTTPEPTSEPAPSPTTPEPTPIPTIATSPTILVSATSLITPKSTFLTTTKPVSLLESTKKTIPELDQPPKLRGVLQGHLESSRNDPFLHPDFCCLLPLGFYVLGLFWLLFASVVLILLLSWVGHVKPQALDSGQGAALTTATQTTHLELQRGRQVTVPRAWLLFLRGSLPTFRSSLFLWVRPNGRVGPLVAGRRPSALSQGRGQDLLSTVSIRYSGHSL

fold binding capacity relative to Y1 [1] [fold]	ELISA read-out at 450 nm [2] [OD 450 nm]	ELISA read-out at 450 nm [3] [OD 450 nm]	ELISA read-out at 450 nm [4] [OD 450 nm]	ELISA read-out at 450 nm [5] [OD 450 nm]	ELISA read-out at 450 nm [6] [OD 450 nm]	ELISA read-out at 450 nm [7] [OD 450 nm]	ELISA read-out at 450 nm [8] [OD 450 nm]	ELISA read-out at 450 nm [9] [OD 450 nm]	ELISA read-out at 450 nm [10] [OD 450 nm]	ELISA read-out at 450 nm [11] [OD 450 nm]	ELISA read-out at 450 nm [12] [OD 450 nm]	ELISA read-out at 450 nm [13] [OD 450 nm]	ELISA read-out at 450 nm [14] [OD 450 nm]	ELISA read-out at 450 nm [15] [OD 450 nm]	ELISA read-out at 450 nm [16] [OD 450 nm]	Binder
25	0.07	0.07	0.08	0.8	0.3	0.8	0.07	0.07	0.1	0.15	0.06					S1 scFv (scFv) scFv: EVQLVESGGGVVRPGGSLRLSCAASGFTFDLNPKVKHMWVRQAPGKGLEWVSGINWNGGSTGYADSVKGRFTISRDNAKNSLYLQMNSLRAEDTAVYYCARLRPPFLWGQGTLVTVSRGGGGSGGGGSGGGGSSELTQDPAVSVALGQTVRITCQGDSLRSYYASWYQQKPGQAPVLVIYGKNNRPSGIPDRFSGSSSGNTASLTITGAQAEDEADYYCNSRDSSGNHVVFGGGTKLTVLGAAAEQKLISEEDLNGAA
	0.1						0.01				0.08	0.6	0.7	0.7	0.3	S11 scFv (scFv) scFv: EVQLVESGGGVVRPGGSLRLSCAASGFTFDLNPKVKHMWVRQAPGKGLEWVSGINWNGGSTGYADSVKGRFTISRDNAKNSLYLQMNSLRAEDTAVYYCARLRYPFFWGQGTLVTVSRGGGGSGGGGSGGGGSSELTQDPAVSVALGQTVRITCQGDSLRSYYASWYQQKPGQAPVLVIYGKNNRPSGIPDRFSGSSSGNTASLTITGAQAEDEADYYCNSRDSSGNHVVFGGGTKLTVLGAAAEQKLISEEDLNGAA
